# In the nanobody polyreactivity screen of Harvey et al. (2022):
# Test: yeast display, Sf9 membrane polyspecificity reagent, FACS + sequencing; frameworks hold sequencing errors
# Outline: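 After 36–48 hours of galactose induction, yeast (Saccharomyces cerevisiae BJ5465) displaying a synthetic nanobody library were stained at 4 °C for 1 hour with 10% biotinylated, detergent-solubilized Sf9 membrane reagent. Streptavidin microbeads enriched the stained cells before FACS sorting into low and high (top ~1%) gates on anti-HA and streptavidin fluorescence. Each clone's polyreactivity label reflects its gate of origin.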
row,Sequence,polyreactivity (PSR sort gate)
1,QVQLVESGGGLVQAGGSLRLICAASGFIFESNAMGWYRQAPGKERELVAAITSAGRTYYADSVKGRFTISRDNAKNTVYLQMNSLKPEDNAVYYCNATRSRYRYDYWGQGTQVTVSS,high polyreactivity
2,QVQLVESGGGLVQAGGSLRLICAASGFIFLDYAMGWSRPAPGKERELVAAISSRGARTYYADSVKGRFTISRDNEKNTVYLQMNSLKPEDTAVYYCAARGPLDRYGYWGQGTQVTVSS,high polyreactivity
3,QVQLVESGGGLVQAGGSLRLICAASGFIFNAYAMGWYRQAPGKERELVAAISTRGSNTYYADSVKGRFTISRDNAKNTVYLQMNSLKPEDTAVYYCNRVFSYQYKRDYWGQGTQVTVSS,high polyreactivity
4,QVQLVESGGGLVQAGGSLRLICAASGFIFPDYTMGWYRHAPGKERELVAAINVSGGSTYYADSVKGRFTISRDHAKNTVYLQMNSLKPEDTAVYYCAAVGGRFVRRSTMDYWGQGTQVTVSS,low polyreactivity
5,QVQLVESGGGLVQAGGSLRLICAASGFIFRRYAMGWYRQSPGKERELVAAISSRGGSTYYADSVKGRFTISRDNAKNTVYLQMNSLKPEDTAVYYCAAYDAVTYPFDYWGQGTQVTVSS,high polyreactivity
6,QVQLVESGGGLVQAGGSLRLICAASGFIIRYYAMGWYRQAPGKERELVAVISASGGSTYYADSVKGRFTISRDNAKNTVYLQMNSLKPEDTAVYYCNTKRYFFHRGDMDYWGQGTQVTVSS,high polyreactivity
7,QVQLVESGGGLVQAGGSLRLICAASGFIIYSYAMGWYRQAPGKERELVAGITSDGRTYYADSVKGRFTISRDNAKNTVYLQMNSQKPEDTAVSYCAARYYLFYRVSPYYYWGQGTQVTVSS,low polyreactivity
8,QVQLVESGGGLVQAGGSLRLICAASGFISNINVMGWYRQAPGKERELVAAITYIDGSTFYADSVKGRFTISRDNAKNTVYLQMNSLKPEDTAVYYCAKTRVRGSEFGYWGQGTQVTVSS,low polyreactivity
9,QVQLVESGGGLVQAGGSLRLICAASGFTFDANAMGWYRQAPGKERELVAAITRVGSTFYADSVKGRFTISRDNAKNTVYLQMNSLKPEDTAVYYCNAARDHVSGYVYWGQGTQVTVSS,low polyreactivity
10,QVQLVESGGGLVQAGGSLRLICAASGFTFEYYAMGWYRQAPGKERELVAAISGSGVSTYYADSVKGRFTISRDNAKNTVYLQMNSLNPEDTAVYYCAALGDKYGSNRLDHYWYIWYDSWGQGTQVTVSS,low polyreactivity
11,QVQLVESGGGLVQAGGSLRLICAASGFTFFAYAMGWYRQAPGKERELVAGISRSGGRTYYADSVKGRFTISRDNAKNTVYLQMNSLKPEDTAVYYCAAGIPVTSRFYGMDWGQGTQVTVSS,high polyreactivity
12,QVQLVESGGGLVQAGGSLRLICAASGFTFGYYAMGWYRQAPGKERELVAAITSRGTRTSYADSVKGRFTISRDNEKNTVYLQMNSLKPEDTAVNYCAARVLRGLGEYYWGQGTQVTVSS,high polyreactivity
13,QVQLVESGGGLVQAGGSLRLICAASGFTFSINTRGWYRQAPGKEREFVAGISRSGGSTYYADSVKGRFTISRDNAKNTVYLQMNSLKPEDTAVYYCNADRYSWYTPLGYDYWGQGTQVNVSS,high polyreactivity
14,QVQLVESGGGLVQAGGSLRLICAASGFTFVRYTMGWYRQAPGKERELVAVIRRGGSTYYADSVKGRFTISRDNAKNTVYLQMNSLKPEDTAVYYCNALSALAVEDGYWGQGTQVTVSS,low polyreactivity
15,QVQLVESGGGLVQAGGSLRLICAASGGIFDFYAMGWYRQAPGKERELVAAITRSGSSTFYADSVKGRFTISRDNAKNTVYLQMNSLKPEDTAVYYCAAPYYYFAVYYGYIFEYDYWGQGTQVTVSS,low polyreactivity
16,QVQLVESGGGLVQAGGSLRLICAASGGISLYYVKGWYRQAPGKERELVADISGDDSTNYADSVKGRFTISRDNAKNTVYLQMNSLKPEDTAVYYSAAVPGLFYLPYDYWGQGTQVTVSS,low polyreactivity
17,QVQLVESGGGLVQAGGSLRLICAASGGTFRYYTMVWYRQAPGKERELVAAITRGGRTYYADSVKGRFTISRDNAKNTVYIQMNSLKPEDTAVYYCAGVRPRSPVSYENDYWGQGTQVTVSS,high polyreactivity
18,QVQLVESGGGLVQAGGSLRLICAASGIFSYYARGWYRQAPGKERELVATISRRGSSTYYADSVKGRFTISRDNAKNTVYLQMNSLKPEDTAVYYCNADIGWGRFSQSFDYWGQGTQVTVSS,low polyreactivity
19,QVQLVESGGGLVQAGGSLRLICAASGIIFDPNAMGWYRQAPGKERELVAAITHTGSTSYADSVKGRFTISRDNAKNTVYLQMNRLNPEDTAVYYCAAGTWVRAWYRYWYDFEYWGQGTQVTVSS,high polyreactivity
20,QVQLVESGGGLVQAGGSLRLICAASGIIFFDYAMGWYRQAPGKEREMVAAISSGGGNTYYADSVKGRFTISRDNAKNTVYLQMNSLKPEDTAVYYCAAEPYIYGEQGAYDYWGQGTQVTVSS,low polyreactivity
21,QVQLVESGGGLVQAGGSLRLICAASGIIFNYNAMGWYRQAPGNERELVATISSGDSTNYADSVKGRFTISRDNAKNTVYLQMNSLKPEDTAVYYCAAESPSVFEGYAQLYIILEDYWGQGTQVTVSS,low polyreactivity
22,QVQLVESGGGLVQAGGSLRLICAASGIIFPFYVMGWYRQAPGKERELVAAITWSGDGTYYADSVKGRFTISRDNAKNTVYLQMNSLKPEDTAVYYCAAQWYYGGVKYYYWGQGTIVTVSS,low polyreactivity

row,Sequence,polyreactivity (PSR sort gate)
1,QVQLVESGGGLVQAGGSLRLICAASGIILAYAMGWYRQAPGKERELVAAISGRAGSTYYADSVKGRFTISRDNAKNTVYLHMNSLTPEDTAVYYCAKRISYLPVEMDYWGQGTQVTVSS,low polyreactivity
2,QVQLVESGGGLVQAGGSLRLICAASGIILGHKAMGWYRQAPGKERELVATITTRGGSTYYADSVKGRFTISRDNAKNTVYLQMNSLKPEDTAVFYCAARPYKSLHYWYDYWGQGTQVTVSS,low polyreactivity
3,QVQLVESGGGLVQAGGSLRLICAASGITFPHYAMGWYRQAPGKEREYVAAISKRAGSTYYADSVKGRFTISLDNAKNTVYLQMNSLKPEDTSVYYCAADDRYYSPYGFKYWGQCTQVTVSS,high polyreactivity
4,QVQLVESGGGLVQAGGSLRLICAASGITFPINTKGWYRQAPGKERELVAGIDWTGGSTYYADSVKGRFTISRDNAKNTVYLQMNSLKPEDTAVYYCAAEFFREGSPRAGSKMDYWGQGTQVTVSS,low polyreactivity
5,QVQLVESGGGLVQAGGSLRLICAASGITFSVYTMGWYRQAPGKERELVAAIDSDGITNYADSVKGRFTISRDNAKNTVYLQLNSLKPEDTAVYYCAKQSGRADGVSGFDYWGQGTQVTVSS,low polyreactivity
6,QVQLVESGGGLVQAGGSLRLICAASGITFYIYGMGWYRQAPGKERELVAAITSGGSTYYADSVKGRFTISRDNAKNTVYLQMNSLKPEDTAVYYCAAGRYYGKGYYYWGQGTQVTVSS,high polyreactivity
7,QVQLVESGGGLVQAGGSLRLICAASGITFYRYDMGWYRQAPGKERELVAAISTRGGSTYYADSVKGRFTISRDNAKNTVYLQMNSLKPEDTAVYYCAKERVGTSLPFKDYYWGQGTQVTVSS,low polyreactivity
8,QVQLVESGGGLVQAGGSLRLICAASGITTRSNAMGWYRQAPGKERDFVAAITSRGGSTYYAYSVKGRFTISRDNAKNTVYLQMNSLKPEDTAVYYCAKGKYPDKKSRHVTLYDYWGQGTQVTVSS,high polyreactivity
9,QVQLVESGGGLVQAGGSLRLICAASGITYRYAMGWYRQAPGKERELVAAITSSGASTYYADSVKGRFTISRDNAKNTVYLQMNSLKPEDTAVYYCATPLRKVYGGYVYWGQGTQVTVSS,low polyreactivity
10,QVQLVESGGGLVQAGGSLRLICAASGLIFGKYAMGWYRQAPGKEREFVAAITRSGGSTYYADSVKGRFTISRDNAKNTVYLQMNSLKPEDTAVYYCAAYSLKYYNGYDYWGQGTQVTVSS,high polyreactivity
11,QVQLVESGGGLVQAGGSLRLICAASGLIFYRNAMGWYRQAPGKERELVAAISSGGRTYYADSVKGRFTISRDNEKNTVYLQMNSLKPEDTAVYYCAASYWKPHRESGYDYWGQGTQVTVSS,high polyreactivity
12,QVQLVESGGGLVQAGGSLRLICAASGLTFDTYSMGWYRQAPGKERELVAAISIGGRTNYADSVKGRFTISRDNAKNTVYLQMNSLKPEDTAVYYCARVFRYNSYYLPYDYWGQGTQVTVSS,high polyreactivity
13,QVQLVESGGGLVQAGGSLRLICAASGLTFFSYAMGWYRQATGKEREFVAAITRRGGRTYYADSVKGRFTISRENANNTVYLQMNSLKPEDTAVYYCNAVPVLISVYRMEYWGQGTQVNVSS,high polyreactivity
14,QVQLVESGGGLVQAGGSLRLICAASGLTFLYYTMVWYRQEPGNERELVAAITSGASTNYADSVKGRFTISRDNAKNTVYLQMNSLIPEDTAVYYCAARYVGPFAWYSGYDYWGQGTQVTVSS,low polyreactivity
15,QVQLVESGGGLVQAGGSLRLICAASGLTFVHNAMGWYRQAPGKERELVAAISSSGGRTYYADSVKARFTISRDNAKNTVYLQMNSLKPEDTAVYYCNKAAFNYYLYGYWGQGTQVTVSS,high polyreactivity
16,QVQLVESGGGLVQAGGSLRLICAASGLTFVPNAMGWYRQAPGKERELVAGITSAGSTYYADSVKGRFTISRDNAKNTVYLQMNSLKPEDTAVYYCAKQFYRGFRYGYWGQGTQVTVSS,high polyreactivity
17,QVQLVESGGGLVQAGGSLRLICAASGNSYIYNAMGSYRQAPGKEMELVAAISSRGGTTSDAVSVKGRFTISRDHAKNTVYFQMNSLKPEDTAVYYCAARQVVPSYRYPYGYWGQGTQVTVSS,high polyreactivity
18,QVQLVESGGGLVQAGGSLRLICAASGNTFVRYYMGWYRQAPGKEREFVAAITASGGSTFADSVKGRFTISRDNAKNTVYLQMNSLKPEDTAVYYCNAGNSSTGVDRYDYWGQGTQVSVSS,low polyreactivity
19,QVQLVESGGGLVQAGGSLRLICAASGNTLIVNAMGWYRQAPGKERELVAAITRDGRTNYADSVKGRFTISRDNAKNTVYLQMNSLKPEDTAVYYCAARLAQSTGYGYWGQGTQVTVSS,low polyreactivity
20,QVQLVESGGGLVQAGGSLRLICAASGRIFFTYAMGWYIQAPGKERQLVASITGSGGSTYYADSVKGRFTISRDNAKNTVYLQMNSLKPEDTAVYYCAAALFRRQLYRKFYYWGQGTQVTVSS,low polyreactivity
21,QVQLVESGGGLVQAGGSLRLICAASGRIFGLNAMGWYRQAPGKEREFVAAITWRGGRTYYADSVKGRFTISRDNAKNTVYLQMNSLKPEDTAVYYCAADGGSTLDYYWGQGTQVTVSS,low polyreactivity
